Assay [1] addresses T1, human fibroblast activation protein (FAP) on the cell surface (human, UniProt Q12884 1-760).
T1 construct: also called huFAP; NIH/3T3-huFAP clone 39 cells
T1 sequence: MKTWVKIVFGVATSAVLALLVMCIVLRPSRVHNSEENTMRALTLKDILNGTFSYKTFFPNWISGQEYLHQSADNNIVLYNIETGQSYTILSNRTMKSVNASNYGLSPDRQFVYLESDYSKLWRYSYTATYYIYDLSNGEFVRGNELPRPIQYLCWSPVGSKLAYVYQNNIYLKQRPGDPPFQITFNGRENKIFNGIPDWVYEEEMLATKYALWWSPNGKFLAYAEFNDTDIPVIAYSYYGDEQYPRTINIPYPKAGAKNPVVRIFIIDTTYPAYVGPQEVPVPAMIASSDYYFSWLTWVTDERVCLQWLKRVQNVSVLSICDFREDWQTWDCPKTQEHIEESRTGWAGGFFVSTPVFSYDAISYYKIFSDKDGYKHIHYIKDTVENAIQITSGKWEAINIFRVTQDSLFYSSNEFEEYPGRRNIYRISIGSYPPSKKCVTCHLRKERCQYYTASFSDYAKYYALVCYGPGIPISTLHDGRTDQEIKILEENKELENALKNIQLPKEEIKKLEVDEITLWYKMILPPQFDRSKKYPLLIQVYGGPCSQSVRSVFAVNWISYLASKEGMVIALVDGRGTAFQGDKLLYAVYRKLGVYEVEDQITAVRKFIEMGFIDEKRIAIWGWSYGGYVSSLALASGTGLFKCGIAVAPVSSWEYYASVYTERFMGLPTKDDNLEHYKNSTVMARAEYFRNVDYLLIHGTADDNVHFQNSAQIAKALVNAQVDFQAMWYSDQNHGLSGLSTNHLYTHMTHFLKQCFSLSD
Briefly: flow cytometry on 3T3-huFAP clone 39 cells, detection with FITC-labelled anti-huIgG (H+L) goat IgG F(ab)2, MFI baseline corrected. How it is done:
(§1) For binding assays on FAP expressing cells, the NIH/3T3-huFAP clone 39 cell line was used. To generate this cell line, NIH/3T3 cells were transfected with human FAP (NIH/3T3-huFAP clone 39). The cells were generated by transfection of mouse embryonic fibroblast NIH/3T3 cells (ATCC CRL-1658) with the expression pETR4921 plasmid encoding human FAP under a CMV promoter. Cells were maintained in the presence of 1.5 μg/mL puromycin (InvivoGen, Cat.-No.: ant-pr-5). 0.1×10⁶ of FAP expressing tumor cells were added to each well of a round-bottom suspension cell 96-well plates (Greiner bio-one, cellstar, Cat.-No. 650185). Cells were washed once with 200 μL/well 4° C. cold FACS buffer and resuspended in 50 μL/well of 4° C. cold FACS buffer containing different concentrations of titrated FAP-targeted or DP47-targeted CMP-trimeric 4-1BB ligand-containing antigen binding molecule. Resuspended cells were incubated for 2 hour at 4° C. […] Cells were washed twice with 200 μL/well cold FACS buffer and resuspended in 100 μL/well FACS buffer containing 0.2 μg/mL DAPI (Santa Cruz Biotec, Cat. No. Sc-3598) and acquired the same day using a 5-laser LSR-Fortessa (BD Bioscience with DIVA software).

In assay [2] the target is T1, human fibroblast activation protein …. Nature of the assay: flow cytometry on 3T3-huFAP clone 39 cells, detection with PE-labelled anti-human CD137L (4-1BBL) mouse IgG2b, MFI baseline corrected. How it is done:
as §1
On the technique in general: In flow cytometry, cells or beads pass a laser one at a time.

Assay [3] has the same target. Briefly: flow cytometry on 3T3-huFAP clone 39 cells, detection with FITC-labelled anti-huIgG kappa mouse IgG (clone G18-145), MFI baseline corrected. The method, then: as §1

B1: FAP(28H1)-targeted hu CMP (CMPtd) trimeric human 4-1BBL(71-254)-containing antigen binding molecule (other)
chain: EVQLLESGGGLVQPGGSLRLSCAASGFTFSSHAMSWVRQAPGKGLEWVSAIWASGEQYYADSVKGRFTISRDNSKNTLYLQMNSLRAEDTAVYYCAKGWLGNFDYWGQGTLVTVSSASTKGPSVFPLAPSSKSTSGGTAALGCLVKDYFPEPVTVSWNSGALTSGVHTFPAVLQSSGLYSLSSVVTVPSSSLGTQTYICNVNHKPSNTKVDKKVEPKSCDGGGGSGGGGSEEDPCACESLVKFQAKVEGLLQALTRKLEAVSKRLAILENTVVSGGGGSGGGGSGGGGSGGGGSREGPELSPDDPAGLLDLRQGMFAQLVAQNVLLIDGPLSWYSDPGLAGVSLTGGLSYKEDTKELVVAKAGVYYVFFQLELRRVVAGEGSGSVSLALHLQPLRSAAGAAALALTVDLPPASSEARNSAFGFQGRLLHLSAGQRLGVHLHTEARARHAWQLTQGATVLGLFRVTPEIPAGLPSPRSE
light: EIVLTQSPGTLSLSPGERATLSCRASQSVSRSYLAWYQQKPGQAPRLLIIGASTRATGIPDRFSGSGSGTDFTLTISRLEPEDFAVYYCQQGQVIPPTFGQGTKVEIKRTVAAPSVFIFPPSDEQLKSGTASVVCLLNNFYPREAKVQWKVDNALQSGNSQESVTEQDSKDSTYSLSSTLTLSKADYEKHKVYACEVTHQGLSSPVTKSFNRGEC
notes: Three fusion chains are covalently linked by disulfides of the huCMP trimerization domain; each pairs with one light chain to form a Fab; also called trimeric FAP-huCMP-4-1BBL
Usually EC50 (read off the curve) stands for the concentration needed to bring the measured effect to its halfway point. Read a low EC50 (read off the curve) as an effect from little substance. As to B1, the figures for the 50% effective concentration (EC50 (read off the curve)) in assay [1], in assay [2] and in assay [3] were around 2000 pM, around 400 pM and around 700 pM, respectively.

The record behind these values is US20190016771A1 (Hoffmann-La Roche, published 2019).
